In patent publication US7642239B2, “Inhibition of placenta growth factor (PLGF) mediated metastasis and/or angiogenesis” (Center for Molecular Medicine and Immunology, priority 2005, dated 2010):
Marks after values point to notes of the source that are not given here.

What was measured:
[1] = tested on: PlGF-mediated angiogenesis in corneal tissues; assay: Mouse corneal micropocket angiogenesis assay; format: in vivo, C57B16/J mice; conditions: day 5; for effect on PlGF mediated angiogenesis in corneal tissues: micropellets, 100 ng PlGF with 1 μM peptide
Experimental: The ability of PlGF ligands to block PlGF-mediated angiogenesis in corneal tissues in vivo is investigated. Corneal micropockets are created using a modified von Graefe cataract knife in both eyes of male 5-6-wk-old C57B16/J mice. Micropellets comprised of a sustained release formulation of polyglucuronic acid/polylactic acid containing 100 ng of PlGF or PlGF with 1 μM BP-1, BP-2, BP-3 or BP-4 are implanted into each corneal pocket. Eyes are examined by a slit-lamp biomicroscope on day 5 after pellet implantation. Vessel length and neovascularization are measured.

[2] = tested on: MCF-7 human breast cancer cells; format: cell-based
Experimental: (§1) MTT (3-(4,5-dimethylthiazolyl-2)-2,5-diphenyltetrazolium bromide, Sigma) assays were performed under conditions of low serum (1%) to determine PlGF effects on cell viability, the toxicity of the peptides, and their effect on PlGF-mediated breast tumor cell growth (Mosmann, 1983, J Immunol Meth 65:55-63; Modrak et al., 2000, Biochem Biophys Res Commun 268:603-606). Peptide concentration was 1-2 μM, and the concentration of exogenous PlGF was 2 nM. The human breast tumor lines tested were: MDA-MB-231, MDA-MB-468 and MCF-7 (ATCC, Mannasses, Va.). Briefly, 96-well plates were seeded with 5-10×10^4 cells/ml in medium containing 1% fetal bovine serum (FBS). After 24 h, cells were treated with individual peptides at a concentration of 1-2 μM (4 binding peptides), in quadruplicate, and/or rhuPlGF at a 2-nM concentration. After the designated time points, 0.5 mg/ml MTT (5 mg/ml stock diluted 1:10 in RPMI medium with no serum) was added to the wells (Mosmann, 1983). When purple crystals were clearly visible in the cells, and the plate appeared to be fully developed, the reaction was terminated with acid alcohol (0.04M HCl in isopropanol). Absorbance of the dissolved crystals was read at 570 nm. The 24-h time point was chosen because the in vitro effects of PlGF on tumor cell migration were measurable at this time (see wound-healing assay below). These assays were also performed using medium with 10% FBS, with similar results.

PlGF = biological target: T1, PlGF (Homo sapiens, UniProt P49763); assay: Free peptide binding ELISA (FLAG epitope probe), PlGF-coated wells; conditions: free peptide; BP3, BP4, BP3scr at up to 50 μM
T1 construct: purchased R&D Systems
T1 sequence (P49763 19-170 isoform P49763-3 limits assumed): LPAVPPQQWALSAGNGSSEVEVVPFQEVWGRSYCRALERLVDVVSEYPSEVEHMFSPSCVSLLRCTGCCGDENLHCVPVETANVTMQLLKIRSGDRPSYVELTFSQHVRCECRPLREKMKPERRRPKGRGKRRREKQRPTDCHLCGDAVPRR
Experimental: (§2) Competition assays were done with 2.5 or 25 U/ml heparin (Sigma, St. Louis, Mo.). BP1, 3, 4, and a scrambled version of BP3 (scrBP3) were synthesized with a linker followed by the FLAG epitope ([…] SEQ ID NO:5) at the C-terminus. Thirty minutes after addition of the first reagent, the second reagent was added, followed by another 30 minute incubation. Peptide binding was assessed by probing for the FLAG epitope (Prickett et al., Biotechniques 7:580-9, 1989; Castrucci et al., J. Virol. 66:4647-53, 1992). Absorbance was read at 490 nm.

[3] = tested on: MDA-MB-231 human breast cancer cells; assay: MTT tumor cell viability assay, MDA-MB-231; format: cell-based; conditions: 24 h
Experimental: as §1, with “These assays were also performed using medium with 10% FBS, with similar results.” left out

[4] = biological target: T2, recombinant human Flt-1 fusion protein (Homo sapiens, UniProt P17948); assay: Free peptide binding and competition ELISA, Flt-1-coated wells; conditions: free peptide
T2 construct: purchased R & D Systems
T2 sequence (P17948 with tags, fused parts or gaps limits assumed): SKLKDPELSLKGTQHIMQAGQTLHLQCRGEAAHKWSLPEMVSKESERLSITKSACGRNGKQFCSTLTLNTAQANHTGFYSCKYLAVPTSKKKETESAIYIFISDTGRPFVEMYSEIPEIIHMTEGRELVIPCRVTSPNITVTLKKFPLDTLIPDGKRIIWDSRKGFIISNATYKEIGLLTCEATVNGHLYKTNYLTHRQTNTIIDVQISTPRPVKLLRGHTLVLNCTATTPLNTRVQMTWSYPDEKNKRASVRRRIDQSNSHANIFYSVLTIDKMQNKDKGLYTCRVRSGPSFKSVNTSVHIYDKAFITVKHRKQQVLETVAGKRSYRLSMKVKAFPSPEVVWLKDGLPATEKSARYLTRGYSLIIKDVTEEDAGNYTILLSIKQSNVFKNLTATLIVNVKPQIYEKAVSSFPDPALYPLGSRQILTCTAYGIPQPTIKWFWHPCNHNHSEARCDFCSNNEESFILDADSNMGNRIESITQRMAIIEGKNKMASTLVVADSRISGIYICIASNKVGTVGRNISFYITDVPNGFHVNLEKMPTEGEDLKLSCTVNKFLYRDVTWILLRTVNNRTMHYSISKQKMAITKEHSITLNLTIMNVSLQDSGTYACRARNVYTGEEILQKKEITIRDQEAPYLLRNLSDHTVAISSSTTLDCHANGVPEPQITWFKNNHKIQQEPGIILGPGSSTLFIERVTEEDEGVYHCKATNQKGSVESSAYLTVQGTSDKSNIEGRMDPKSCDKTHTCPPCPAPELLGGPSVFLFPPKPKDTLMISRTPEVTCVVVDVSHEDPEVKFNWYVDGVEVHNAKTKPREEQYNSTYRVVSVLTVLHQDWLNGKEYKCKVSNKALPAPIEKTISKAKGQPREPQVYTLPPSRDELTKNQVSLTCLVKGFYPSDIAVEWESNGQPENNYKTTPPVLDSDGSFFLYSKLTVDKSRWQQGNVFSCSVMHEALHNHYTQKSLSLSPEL
Experimental: as §2

MDA-MB-468 xenografts = format: in vivo, mice; conditions: 200 μg/dose i.p., twice-weekly; for tumor growth inhibition: after 4 weeks
Experimental: FIG. 5. Treatment of mice bearing MDA-MB-468 xenografts with peptides BP1 or BP3. Mice were treated every 3-4 days with 200 ug BP as described in Methods. Tumor volume was measured 2×/week. *P<0.05 at days 10, 14, 17 and 24 (change in tumor volume (ANOVA)). FIG. 5A—tumors treated with binding peptide 1. FIG. 5B—tumors treated with binding peptide 3.
Mice bearing MDA-MB-468 xenografts (average tumor volume: 0.19 cm^3) were treated with i.p. injections of individual peptides (200 μg/dose) (FIG. 5). After 4 weeks of twice-weekly treatment, tumor growth was inhibited by 49% and 58% in mice treated with BP1 (FIG. 5A) or BP3 (FIG. 5B), respectively. The effect of BP3 on tumor growth was apparent after 2 weeks of treatment (FIG. 5B), whereas the inhibitory effect of BP1 was evident after one week (FIG. 5A). The average changes in individual tumor volumes during treatment with BP1 were significant (P<0.05) at days 10, 14, 17 and 24 (FIG. 5A). Treatment with BP2 was ineffective; tumors continued to grow at almost the same rate as the mock-treated controls (results not shown). BP4 treatment produced a 20% inhibition of tumor growth (results not shown).

MCF-7 [5] = assay: Matrigel cell invasion assay, MCF-7; format: cell-based, human; conditions: PlGF 0.2 nM ± peptide 2 μg/ml; 48 h
Experimental: (§3) Cellular invasion was determined by addition of 5×10^4cells to growth factor-reduced Matrigel invasion chambers (BD Biosciences Discovery Labware, Bedford, Mass.) (Taylor et al., 2003b; Passaniti et al., 1992, Lab Invest 67, 519-528). Additives to the Matrigel® plugs were pre-incubated together in a total volume of 100 μl PBS at RT for 10 min, after which each additive was added to the Matrigel. Growth factors (2.0 or 0.2 nM), peptide (2 μg/ml), or antibody (1 μg/ml) were added to cells in low serum (0.1% fetal bovine serum [FBS]) medium. Baseline and chemoattractant-based invasion (10% FBS) were included. The number of invading cells was determined by counting the number of cells on the bottom of the invasion chamber membrane after staining at 100× magnification after 24 h (MDA-MB-231) or 48 h (MCF-7, MDA-MB-468). The results of three to five separate experiments are presented.

MDA-MB-468 [6] = assay: Wound-healing (motility) assay, MDA-MB-468; format: cell-based, human
Experimental: (§4) MCF-7, MDA-MB-23 1, and MDA-MB-468 breast tumor cell lines or HECs were seeded onto sterile glass coverslips in Petri dishes or six-well plates. When the cells were 70-80% confluent, the monolayers were scratched with a sterile plastic pipet tip.
(§5) Inhibitor concentrations were 50 μM PD98059 (PD98) (mitogen activated protein kinase-kinase 1 [MEK1] inhibitor), 5 nM Wortmannin (phosphatidyl inositol 3 kinase [PI3K] inhibitor), or human recombinant soluble Flt-1 (sFlt-1) (R&D Systems). […] Cells were pre-incubated with PD98 and Wortmannin for 15-30 min before addition of PlGF. Stained (Wright-Giemsa) and mounted coverslips were examined microscopically. Five to ten 100× fields were evaluated by counting the number of cells separated from the wound edges and which appeared to be migrating toward the center of the wound. Results are reported as the average number of cells migrating into the wound/100× field. In some cases data from separate experiments were combined to accommodate inclusion of various treatments in the tables.
(§6) Antibody concentration was 1 μg/ml. MEK1 inhibitor, PD98059 (PD98), 50 μM. PI3K inhibitor, Wortmannin, 5 nM. […] Values for antibody and inhibitor treatments were from separate experiments which included all relevant controls. […] UT denotes untreated controls. *P<0.01 (ANOVA) compared to UT; † P<0.02 (ANOVA) compared to PlGF only. ‡ P<0.001 (ANOVA) compared to PlGF only.

MDA-MB-231 [7] = assay: Wound-healing (motility) assay, MDA-MB-231; format: cell-based, human
Experimental: as §4, §5, §6

MDA-MB-468 [8] = assay: Matrigel cell invasion assay, MDA-MB-468; format: cell-based, human; conditions: PlGF 0.2 nM ± peptide 2 μg/ml; 48 h
Experimental: as §3

MCF-7 [9] = assay: Wound-healing (motility) assay, MCF-7; format: cell-based, human
Experimental: as §4, §5, §6

MDA-MB-231 [10] = assay: Matrigel cell invasion assay, MDA-MB-231; format: cell-based, human; conditions: 24 h
Experimental: as §3

[11] = tested on: microvessels in PlGF-containing Matrigel plugs; assay: Matrigel basement membrane plug angiogenesis assay; format: in vivo, nude mice
Description: To further investigate the effect of PlGF binding peptides on endothelial cell migration and angiogenesis, Matrigel basement membrane plugs containing PlGF, BP1, BP2, or PBS were implanted s.c. on the flanks of nude mice. The number of interior microvessels in the PBS controls was 16.2±11.4/mm^2. PlGF-only implants contained 28.9±17.2/mm^2 (1.8-fold vs. mock-treated implants), and implants with PlGF and BP1 contained only 12.3±13.0 microvessels/mm^2 (P<0.02).

[12] = tested on: MDA-MB-468 human breast cancer cells; assay: MTT tumor cell viability assay, MDA-MB-468; format: cell-based; conditions: peptide 2 μM or PlGF 2 nM alone, 24 h
Experimental: as §1, with “These assays were also performed using medium with 10% FBS, with similar results.” left out

[13] = PlGF 2 nM ± test agent, relative to PlGF-only value
[14] = growth factor PlGF 2 nM ± test agent (Flt-1 2 nM, peptide 2 μM, antibody 1 μg/ml), 18-24 h

In the case of “QEAFNRLTSRMH (listed as Homo sapiens) [BP3]”, the “effect on PlGF mediated angiogenesis in corneal tissues” value [1] is reported as “inhibits”, the “effect on viability after 48 h, peptide alone” value ([2]; peptide alone, 48 h, vs untreated controls) is reported as “lost viability” and the “binding to PlGF (in words)” value (PlGF) is reported as “did not bind detectably”. For the same molecule, the “effect on viability of PlGF-containing MDA-MB-231 cultures” value ([3]; PlGF 2 nM + peptide 1-2 μM, 1% serum) was “significant reduction in cell viability”, the “binding to Flt-1 (in words)” value [4] was “No measurable binding” and the “duration of treatment after which effect on tumor growth was apparent” value (MDA-MB-468 xenografts) was 2 weeks. It also gave a tumor growth inhibition (MDA-MB-468 xenografts) of 58%.

For “RMPYSEHSAPLG (listed as Homo sapiens) [BP4]”, the “effect on PlGF mediated angiogenesis in corneal tissues” value [1] was “inhibits”, the “effect on viability of PlGF-containing MCF-7 cultures” value ([2]; PlGF 2 nM + peptide 1-2 μM, 24 h, 1% serum) was “significant reduction in cell viability” and the “binding to PlGF (in words)” value (PlGF) was “did not bind detectably”. For the same molecule, the “binding to Flt-1 (in words)” value [4] was “No measurable binding” and the tumor growth inhibition (MDA-MB-468 xenografts) was 20%.

B1: PlGF: recombinant human PlGF-2, placental growth factor (R&D Systems) (protein)
chain: T1 sequence (P49763 19-170 isoform P49763-3 limits assumed)
In the case of B1, the “Average fold-change in the number of cells on the membrane compared to untreated controls” value (shortened to “Average fold-change in the number”) (MCF-7 [5]) is reported as 2.1 ± 0.7 fold, the “angiogenic response in cornea” value ([1]; micropellets with 100 ng PlGF) is reported as “induces a strong angiogenic response” and the Relative activity (MDA-MB-468 [6]; [13]) is reported as 100. For the same molecule, the “effect on motility (in words)” value (MDA-MB-468 [6]; exogenous PlGF) was “did not significantly affect”, the Migrating cells (MDA-MB-468 [6]; [14]) was 14.7 ± 9.8 cells/100× field and the Relative activity (MDA-MB-231 [7]; [13]) was 100. The increase in motility (MDA-MB-231 [7]; exogenous PlGF) was 1.8-2.1 fold, the Migrating cells (MDA-MB-231 [7]; growth factor PlGF 2 nM ± test agent (Flt-1 2 nM, peptide 2 μM, antibody 1 μg/ml, PD98059 50 μM, Wortmannin 5 nM), 18-24 h) was 42.0 ± 13.3* cells/100× field and the “Average fold-change in the number” value (MDA-MB-468 [8]) was 1.8 ± 0.3 fold. For the same molecule, the “effect on cell viability / cell number, agent alone” value ([3]; peptide 2 μM or PlGF 2 nM alone) was “increased cell numbers”, the Relative activity (MCF-7 [9]; [13]) was 100 and the increase in motility (MCF-7 [9]; exogenous PlGF) was 1.8-2.1 fold. The Migrating cells (MCF-7 [9]; [14]) was 22.1 ± 13.4* cells/100× field, the “Average fold-change in the number” value (MDA-MB-231 [10]; PlGF 0.2 nM ± peptide 2 μg/ml) was 4.0 ± 2.2 fold and the invading cells (MDA-MB-231 [10]; PlGF 0.2 nM) was 28±12 cells. For the same molecule, the invading cells (MDA-MB-231 [10]; PlGF 2.0 nM) was 30±13.7 cells, the increased invasion (MDA-MB-231 [10]; PlGF at both 2.0 and 0.2 nM) was about 3 fold and the interior microvessels ([11]; PlGF-containing implants ± BP1, s.c., PBS controls 16.2±11.4) was 28.9±17.2 /mm^2. The “microvessels, fold vs. mock-treated implants” value ([11]; PlGF-only implants) was 1.8 fold and the “effect on cell viability / cell number, agent alone” value [12] was “increased cell numbers”.
